# Reference: patent US20230086871A1 (UNIVERSITY OF FREIBURG, published 2023)
# Target: the molecule itself
# Test: negative-stain transmission electron microscopy and 2D classification of purified His-SYMREM1 (self-assembly)
protein,measurement,value
"His-SYMREM1 (purified, recombinant Medicago truncatula SYMREM1 protein) (other, also called Symbiotic Remorin 1; recombinant SYMREM1; not shown: N-terminal His tag and linker from the pDEST17 Gateway vector) MEESKNKQLELVDTLTPLPQSESEPREFSYFLEEKEPGNEGTSSSVVKQERVVSDHATSSVDQTTAAGTDTKDSVDRDAVLARVESQKRLALIKAWEENEKTKVENRAYKMQSAVDLWEDDKKASIEAKFKGIEVKLDRKKSEYVEVMQNKIGEIHKSAEEKKAMIEAQKGEEILKVEETAAKFRTRGYQPRRLLGCFSGLRFFS",binding result,binds
